Assay results: patent US20250262210A1 (TRUSTEES OF COLUMBIA UNIVERSITY IN THE CITY OF NEW YORK, published 2025)

Tests used:
[1] = target: T1, LZTR1 R810W-FLAG (human, UniProt Q8N653 1-840); test: IP/MS, LZTR1 R810W-FLAG, U87
T1 construct: Stably expressed in U87 cells by lentivirus; also called LZTR1-FLAG-R810W; LZTR1 RW; not shown: FLAG tag
T1 sequence (looked up): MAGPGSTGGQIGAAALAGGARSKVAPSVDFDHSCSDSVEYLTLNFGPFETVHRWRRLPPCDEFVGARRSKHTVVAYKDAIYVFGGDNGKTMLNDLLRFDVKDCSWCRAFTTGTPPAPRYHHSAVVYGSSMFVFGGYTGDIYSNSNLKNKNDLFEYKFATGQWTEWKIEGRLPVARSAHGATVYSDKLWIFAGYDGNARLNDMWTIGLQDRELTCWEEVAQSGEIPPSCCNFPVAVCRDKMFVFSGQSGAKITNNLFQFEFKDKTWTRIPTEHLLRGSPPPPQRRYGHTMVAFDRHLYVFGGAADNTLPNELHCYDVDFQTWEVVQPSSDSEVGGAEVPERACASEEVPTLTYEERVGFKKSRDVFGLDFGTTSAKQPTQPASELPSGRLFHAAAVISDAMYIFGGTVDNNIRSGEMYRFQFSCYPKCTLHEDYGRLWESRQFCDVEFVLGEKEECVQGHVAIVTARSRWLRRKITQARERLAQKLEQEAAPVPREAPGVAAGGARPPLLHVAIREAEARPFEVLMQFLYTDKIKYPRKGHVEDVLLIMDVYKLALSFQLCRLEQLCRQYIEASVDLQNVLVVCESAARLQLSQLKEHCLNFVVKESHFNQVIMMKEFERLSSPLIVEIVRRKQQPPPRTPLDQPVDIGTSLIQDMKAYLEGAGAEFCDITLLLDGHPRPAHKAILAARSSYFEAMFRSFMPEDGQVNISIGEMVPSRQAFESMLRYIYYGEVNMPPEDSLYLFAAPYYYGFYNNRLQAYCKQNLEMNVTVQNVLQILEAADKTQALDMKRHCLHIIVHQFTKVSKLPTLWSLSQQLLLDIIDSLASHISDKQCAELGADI
Procedure: (§1) Lysates were immunoprecipitated with FLAG affinity matrix and eluted with FLAG peptide. […] Protein gel slices were excised and in-gel digestion performed as previously described (83), with minor modifications. Gel slices were washed with 1:1 A cetonitrile and 100 mM ammonium bicarbonate for 30 min then dehydrated with 100% acetonitrile for 10 min until shrunk. The excess acetonitrile was then removed and the slices dried in speed-vacuum at room temperature for 10 min. Gel slices were reduced with 5 mM DTT for 30 min at 56° C. in an air thermostat, cooled down to room temperature, and alkylated with 11 mM IAA for 30 min with no light. Gel slices were then washed with 100 mM of ammonium bicarbonate and 100% acetonitrile for 10 min each. Excess acetonitrile was removed and dried in a speed-vacuum for 10 min at room temperature and the gel slices were re-hydrated in a solution of 25 ng/μl trypsin in 50 mM ammonium bicarbonate for 30 min on ice and digested overnight at 37° C. in an air thermostat. Digested peptides were collected and further extracted from gel slices in extraction buffer (1:2 ratio by volume of 5% formic acid:acetonitrile) at high speed, shaking in an air thermostat. The supernatants from both extractions were combined and dried in a speed-vacuum. Peptides were dissolved in 3% acetonitrile/0.1% formic acid. Desalted peptides were injected in an EASY-Spray™ PepMap™ RSLC C18 50 cm×[…] column (Thermo Scientific) connected to an Orbitrap Fusion™ Tribrid™ (Thermo Scientific) as described in “Global ubiquitylation enrichment” section. The following modifications were used for protein identification and quantification: oxidation of methionine (M), acetylation of the protein N-terminus, and deamination for asparagine or glutamine (NQ). Results obtained from MaxQuant were assembled in Scaffold for data visualization.

[2] = target: T2, LZTR1-FLAG (human, UniProt Q8N653 1-840); test: IP/MS, LZTR1 wild type-FLAG, U87
T2 construct: Expressed in HEK 293T, HeLa or U87 cells; used as cell lysate; also called LZTR1 wild type-FLAG; LZTR1 WT; not shown: FLAG tag at the C-terminus
T2 sequence (looked up): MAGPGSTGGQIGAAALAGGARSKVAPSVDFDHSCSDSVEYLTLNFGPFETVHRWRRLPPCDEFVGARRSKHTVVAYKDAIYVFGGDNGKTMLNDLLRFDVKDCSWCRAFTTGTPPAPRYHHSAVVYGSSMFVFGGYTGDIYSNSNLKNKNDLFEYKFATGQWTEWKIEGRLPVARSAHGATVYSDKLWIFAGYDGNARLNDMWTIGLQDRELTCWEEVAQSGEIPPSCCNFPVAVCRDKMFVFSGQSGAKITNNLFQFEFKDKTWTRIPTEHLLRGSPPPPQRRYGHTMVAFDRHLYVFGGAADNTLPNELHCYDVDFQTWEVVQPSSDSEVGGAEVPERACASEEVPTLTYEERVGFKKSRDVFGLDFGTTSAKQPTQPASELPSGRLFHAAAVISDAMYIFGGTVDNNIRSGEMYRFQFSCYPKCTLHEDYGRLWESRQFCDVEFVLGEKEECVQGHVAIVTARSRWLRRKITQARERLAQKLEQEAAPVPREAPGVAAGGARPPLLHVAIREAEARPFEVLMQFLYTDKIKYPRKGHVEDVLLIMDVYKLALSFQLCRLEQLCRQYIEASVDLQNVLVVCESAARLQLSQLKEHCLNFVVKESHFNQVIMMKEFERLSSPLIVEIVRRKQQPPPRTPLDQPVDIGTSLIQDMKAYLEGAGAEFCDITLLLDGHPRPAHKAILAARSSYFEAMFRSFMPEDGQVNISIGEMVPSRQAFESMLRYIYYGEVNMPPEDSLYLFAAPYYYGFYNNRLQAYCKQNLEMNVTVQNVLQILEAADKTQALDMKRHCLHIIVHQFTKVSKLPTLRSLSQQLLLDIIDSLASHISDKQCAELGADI
Procedure: as §1

B1: APPL1 (other, human, UniProt Q9UKG1 1-709, looked up)
chain: MPGIDKLPIEETLEDSPQTRSLLGVFEEDATAISNYMNQLYQAMHRIYDAQNELSAATHLTSKLLKEYEKQRFPLGGDDEVMSSTLQQFSKVIDELSSCHAVLSTQLADAMMFPITQFKERDLKEILTLKEVFQIASNDHDAAINRYSRLSKKRENDKVKYEVTEDVYTSRKKQHQTMMHYFCALNTLQYKKKIALLEPLLGYMQAQISFFKMGSENLNEQLEEFLANIGTSVQNVRREMDSDIETMQQTIEDLEVASDPLYVPDPDPTKFPVNRNLTRKAGYLNARNKTGLVSSTWDRQFYFTQGGNLMSQARGDVAGGLAMDIDNCSVMAVDCEDRRYCFQITSFDGKKSSILQAESKKDHEEWICTINNISKQIYLSENPEETAARVNQSALEAVTPSPSFQQRHESLRPAAGQSRPPTARTSSSGSLGSESTNLAALSLDSLVAPDTPIQFDIISPVCEDQPGQAKAFGQGGRRTNPFGESGGSTKSETEDSILHQLFIVRFLGSMEVKSDDHPDVVYETMRQILAARAIHNIFRMTESHLLVTCDCLKLIDPQTQVTRLTFPLPCVVLYATHQENKRLFGFVLRTSSGRSESNLSSVCYIFESNNEGEKICDSVGLAKQIALHAELDRRASEKQKEIERVKEKQQKELNKQKQIEKDLEEQSRLIAASSRPNQASSEGQFVVLSSSQSEESDLGEGGKKRESEA
Q: What does the source list for B1?
A: binding result [1]: binds; binding result [2]: binds

B2: ARMCX2 (other, human, UniProt Q7L311 1-632, looked up)
chain: MSRVRDAGCVAAGIVIGAGAWYCVYKYTRGRDQTKKRMAKPKNRAVAGTGARARAGLRAGFTIDLGSGFSPPTPVRAEAEDRAQDEASALDTVGAEAVAPAASSAEAQSGAGSQAQEADGAGVGPKAESVVGAAMASAIAPPPGVTEALGAAEAPAMAGAPKVAEAPREAETSRAAVPPGTVVPTEAAAPTEVTEGPGVAAPTKVAEAPGVASPTEAAEAPVPATPTGAAAPTGAAESPGTSGSPRTAVVPGTSAAKKATPGAHTGAIPKATSATGAVPKGGGKGVTRSRNGGKGKGKKSKVEVDELGMGFRPGDGAAAAAAASANGGQAFLAEVPDSEEGESGWTDTESDSDSEPETQRRGRGRRPVAMQKRPFPYEIDEILGVRDLRKVLALLQKSDDPFIQQVALLTLSNNANYSCNQETIRKLGGLPIIANMINKTDPHIKEKALMAMNNLSENYENQGRLQVYMNKVMDDIMASNLNSAVQVVGLKFLTNMTITNDYQHLLVNSIANFFRLLSQGGGKIKVEILKILSNFAENPDMLKKLLSTQVPASFSSLYNSYVESEILINALTLFEIIYDNLRAEVFNYREFNKGSLFYLCTTSGVCVKKIRALANHHDLLVKVKVIKLVNKF
Q: Does B2 bind [1]?
A: binds

Q: Does B2 bind [2]?
A: binds

B3: ATF6 (other, human, UniProt P18850 1-670, looked up)
chain: MGEPAGVAGTMESPFSPGLFHRLDEDWDSALFAELGYFTDTDELQLEAANETYENNFDNLDFDLDLMPWESDIWDINNQICTVKDIKAEPQPLSPASSSYSVSSPRSVDSYSSTQHVPEELDLSSSSQMSPLSLYGENSNSLSSAEPLKEDKPVTGPRNKTENGLTPKKKIQVNSKPSIQPKPLLLPAAPKTQTNSSVPAKTIIIQTVPTLMPLAKQQPIISLQPAPTKGQTVLLSQPTVVQLQAPGVLPSAQPVLAVAGGVTQLPNHVVNVVPAPSANSPVNGKLSVTKPVLQSTMRNVGSDIAVLRRQQRMIKNRESACQSRKKKKEYMLGLEARLKAALSENEQLKKENGTLKRQLDEVVSENQRLKVPSPKRRVVCVMIVLAFIILNYGPMSMLEQDSRRMNPSVSPANQRRHLLGFSAKEAQDTSDGIIQKNSYRYDHSVSNDKALMVLTEEPLLYIPPPPCQPLINTTESLRLNHELRGWVHRHEVERTKSRRMTNNQQKTRILQGALEQGSNSQLMAVQYTETTSSISRNSGSELQVYYASPRSYQDFFEAIRRRGDTFYVVSFRRDHLLLPATTHNKTTRPKMSIVLPAININENVINGQDYEVMMQIDCQVMDTRILHIKSSSVPPYLRDQQRNQTNTFFGSPPAATEATHVVSTIPESLQ
Q: Does B3 bind [1]?
A: binds

Q: Does B3 bind [2]?
A: binds
